Data published in patent US20240076384A1.

Experiments:
[1] = target: soluble mouse Fc-human NKG2D dimer (human) (UniProt P26718); experiment: SPR, 37 C, mFc-hNKG2D captured, TriNKET as analyte, experiment 1
[2] = target: soluble mouse Fc-human NKG2D dimer (human) (UniProt P26718); experiment: SPR, 37 C, mFc-hNKG2D captured, TriNKET as analyte, experiment 2
[3] = target: soluble mouse Fc-human NKG2D dimer (human) (UniProt P26718); experiment: SPR, 37 C, mFc-hNKG2D captured, TriNKET as analyte, experiment 3
[4] = target: soluble mouse Fc-human NKG2D dimer (human) (UniProt P26718); experiment: SPR, 37 C, average of three experiments for TriNKET A (columns shifted)
[5] = target: soluble mouse Fc-human NKG2D dimer (human) (UniProt P26718); experiment: SPR, 37 C, mFc-hNKG2D captured, TriNKET as analyte, kinetic fit, experiment 1
[6] = target: soluble mouse Fc-human NKG2D dimer (human) (UniProt P26718); experiment: SPR, 37 C, mFc-hNKG2D captured, TriNKET as analyte, kinetic fit, experiment 2
[7] = target: soluble mouse Fc-human NKG2D dimer (human) (UniProt P26718); experiment: SPR, 37 C, mFc-hNKG2D captured, TriNKET as analyte, kinetic fit, experiment 3
[8] = target: soluble mouse Fc-human NKG2D dimer (human) (UniProt P26718); experiment: SPR, 37 C, mFc-hNKG2D captured, TriNKET as analyte, steady state affinity fit, experiment 1
[9] = target: soluble mouse Fc-human NKG2D dimer (human) (UniProt P26718); experiment: SPR, 37 C, mFc-hNKG2D captured, TriNKET as analyte, steady state affinity fit, experiment 2
[10] = target: soluble mouse Fc-human NKG2D dimer (human) (UniProt P26718); experiment: SPR, 37 C, mFc-hNKG2D captured, TriNKET as analyte, steady state affinity fit, experiment 3
[11] = target: soluble mouse Fc-human NKG2D dimer (human) (UniProt P26718); experiment: SPR, 37 C, kinetic fit, average of three experiments for TriNKET A (cell split over r19 and r20, columns shifted)
[12] = target: soluble mouse Fc-human NKG2D dimer (human) (UniProt P26718); experiment: SPR, 37 C, steady state affinity fit, average of three experiments for TriNKET A (cell split over r19 and r20, columns shifted)

Chain of soluble mouse Fc-human NKG2D dimer (human) (P26718 78-216): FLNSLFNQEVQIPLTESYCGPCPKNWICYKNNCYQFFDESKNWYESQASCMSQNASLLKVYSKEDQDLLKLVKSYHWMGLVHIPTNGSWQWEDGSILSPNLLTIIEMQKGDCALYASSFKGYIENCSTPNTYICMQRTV

B1: TriNKET A (a TriNKET containing A49) (bispecific antibody, part only; not given: Tumour antigen arm, constant regions, Fc, V domains shown, not shown: another chain or arm of the molecule; a dimerising Fc or GST)
VH: EVQLVESGGGLVKPGGSLRLSCAASGFTFSSYSMNWVRQAPGKGLEWVSSISSSSSYIYYADSVKGRFTISRDNAKNSLYLQMNSLRAEDTAVYYCARGAPMGAAAGWFDPWGQGTLVTVSS
VL: DIQMTQSPSSVSASVGDRVTITCRASQGISSWLAWYQQKPGKAPKLLIYAASSLQSGVPSRFSGSGSGTDFTLTISSLQPEDFATYYCQQGVSFPRTFGGGTKVEIK
Which Stoichiometry [1] does the source give for B1 here?
Its Stoichiometry is 1.01.

What about the Stoichiometry [2] of the same binder?
The Stoichiometry was 0.88.

What about the Stoichiometry [3] of the same binder?
Its Stoichiometry is 1.12.

And the Stoichiometry [4]?
The Stoichiometry was 1.01.

What about the Kd [5] of the same binder?
Its Kd is 605 nM.

And the koff [5]?
Its koff is 0.116 s⁻¹.

What about the kon [5] of the same binder?
Its kon is 191000 M⁻¹ s⁻¹.

And the Kd [6]?
Its Kd is 523 nM.

What about the koff [6] of the same binder?
Its koff is 0.106 s⁻¹.

What about the kon [6] of the same binder?
Its kon is 203000 M⁻¹ s⁻¹.

What about the Kd [7] of the same binder?
Its Kd is 595 nM.

And the koff [7]?
The koff was 0.115 s⁻¹.

And the kon [7]?
The kon was 193000 M⁻¹ s⁻¹.

And the Kd [8]?
The Kd was 462 nM.

What about the Kd [9] of the same binder?
The Kd was 420 nM.

And the Kd [10]?
The Kd was 580 nM.

And the koff [11]?
Its koff is 0.112 s⁻¹.

What about the kon [11] of the same binder?
Its kon is 196000 M⁻¹ s⁻¹.

What about the Kd [12] of the same binder?
Its Kd is 487 nM.
